# Results reported in paper PMC3137711 (Molecular imaging and biology : MIB : the official …, 2011).
# How the values were obtained:
# MicroPET imaging = type: in vivo, mouse; conditions: female, athymic nude, mouse, in vivo, 100 uCi, total radioactivity
# [1] = test system: MDA-MB-435 tumor-bearing mice; assay: MicroPET imaging; type: in vivo, mouse; conditions: co-injection with 300 µg unlabeled c(RGDfk) per mouse
smiles,measurement,setting,value
"CC(=O)N(O)CCCCCNC(=O)CCC(=O)N(O)CCCCCNC(=O)CCC(=O)N(O)CCCCCNC(=S)Nc1ccc(NC(=S)NCCOCCOCCOCCOCCC(=O)N[C@@H](CCC(=O)NCCOCCOCCOCCOCCC(=O)NCCCC[C@@H]2NC(=O)[C@@H](Cc3ccccc3)NC(=O)[C@H](CC(=O)O)NC(=O)CNC(=O)[C@H](CCCNC(=N)N)NC2=O)C(=O)NCCOCCOCCOCCOCCC(=O)NCCCC[C@@H]2NC(=O)[C@@H](Cc3ccccc3)NC(=O)[C@H](CC(=O)O)NC(=O)CNC(=O)[C@H](CCCNC(=N)N)NC2=O)cc1 [^89Zr-Df-[FK]2-3PEG4, metal not drawn]",tissue to tissue ratio at 0.5 h,MicroPET imaging,12.6 ± 1.07
same,tissue to tissue ratio at 1 h,MicroPET imaging,16.2 ± 3.23
same,tissue to tissue ratio at 2 h,MicroPET imaging,18.2 ± 2.52
same,tissue to tissue ratio at 4 h,MicroPET imaging,19.7 ± 3.99
same,tissue to tissue ratio at 24 h,MicroPET imaging,10.8 ± 1.31
same,tissue uptake at 0.5 h,MicroPET imaging; SD,3.98 ± 0.5 %ID/g
same,tissue uptake at 2 h,MicroPET imaging; SD,4.72 ± 0.66 %ID/g
same,tissue uptake at 4 h,MicroPET imaging; SD,4.47 ± 0.81 %ID/g
same,tissue uptake at 24 h,MicroPET imaging; SD,2.2 ± 0.26 %ID/g
same,decrease of tumor uptake (PET) by blocking,[1],approximately 90%
